The assay addresses T1, enNTS1ΔM4 (minimal methionine variant of the thermostabilized rat neurotensin receptor 1 variant enNTS1) (rat, N262^5.63R (stands in the printed letters) | K263^5.64R (stands in the printed …)).
T1 construct: residues left before the receptor after HRV 3C cleavage (so in the source); enNTS1ΔM4: rat neurotensin receptor 1 thermostabilized by directed evolution (enNTS1), four of the ten methionines removed; linker, C-terminal Avi-tag and the rest of the HRV 3C site, as printed (the Avi-tag is named under tags too); In DDM micelles; 13CεH3-methionine labelled or unlabelled; also called …
T1 chain: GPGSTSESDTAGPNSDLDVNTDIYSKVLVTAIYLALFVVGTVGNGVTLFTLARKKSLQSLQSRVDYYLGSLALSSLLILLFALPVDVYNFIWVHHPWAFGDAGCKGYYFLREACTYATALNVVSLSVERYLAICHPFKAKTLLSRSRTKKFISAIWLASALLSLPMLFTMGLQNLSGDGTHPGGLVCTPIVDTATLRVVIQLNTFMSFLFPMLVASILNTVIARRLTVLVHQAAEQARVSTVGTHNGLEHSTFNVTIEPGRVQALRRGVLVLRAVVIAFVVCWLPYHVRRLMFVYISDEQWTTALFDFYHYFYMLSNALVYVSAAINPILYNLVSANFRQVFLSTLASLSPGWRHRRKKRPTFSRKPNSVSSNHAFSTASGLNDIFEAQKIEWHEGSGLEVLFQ
The assay is described as follows: NMR (1H-13C HMQC spectra); 66 μM [13CεH3-methionine]-enNTS1ΔM4 with 500 μM ML314 (no NT8-13), 130 μM PIP2 and 2.3x molar equivalents βArr1-3A, 298 K. Conditions: both partners purified.

B1: βArr1-3A (pre-activated cysteine-free human β-arrestin-1, I386A/V387A/F388A), tags removed (natural protein)
chain: GPSGDKGTRVFKKASPNGKLTVYLGKRDFVDHIDLVDPVDGVVLVDPEYLKERRVYVTLTVAFRYGREDLDVLGLTFRKDLFVANVQSFPPAPEDKKPLTRLQERLIKKLGEHAYPFTFEIPPNLPSSVTLQPGPEDTGKALGVDYEVKAFVAENLEEKIHKRNSVRLVIRKVQYAPERPGPQPTAETTRQFLMSDKPLHLEASLDKEIYYHGEPISVNVHVTNNTNKTVKKIKISVRQYADIVLFNTAQYKVPVAMEEADDTVAPSSTFSKVYTLTPFLANNREKRGLALDGKLKHEDTNLASSTLLREGANREILGIIVSYKVKVKLVVSRGGLLGDLASSDVAVELPFTLMHPKPKEEPPHREVPENETPVDTNLIELDTNDDDAAAEDFARQRLKGMKDDKEEEEDGTGSPQLNNR
notes: residues left after HRV 3C cleavage (so in the source); human β-arrestin-1, cysteine-free, 3A mutant; Used in the NMR experiments, unlabelled or [U-15N,13C,2H]-labelled; also called hβArr1-3A; βArr-3A; source: E. coli BL21(DE3), purified (Ni-NTA, HRV 3C cleavage, HiTrap Q, SEC); not shown: His6, N-terminal, cleaved; Protein C tag, N-terminal, cleaved
Regarding B1, the binding result was “binds”.

For the origin of these results see publication PMC10247727, “Stabilization of pre-existing neurotensin receptor conformational states by β-arrestin-1 and the biased allosteric modulator ML314” (Nature Communications, 2023).
